Results taken from patent US20110135573A1, “METALLOPROTEINASE 9 AND METALLOPROTEINASE 2 BINDING PROTEINS” (DYAX CORP., priority 2009, published 2011).

Target: T1, mouse MMP-2 (Mus musculus, UniProt P33434)
T1 construct: purchased R&D Systems 924-MP-010
Assay: Enzyme inhibition assay (single point inhibition, IC50/Ki,app), substrate M-2350
Format: biochemical
Settings: Table 10
Protocol: 343 unique sFabs from the anti-MMP-9/-2 M237-D02 affinity maturation campaign were discovered by phage display, produced in small scale (6 mL cultures in deep 24-well plates) and screened to select inhibitors with sub-nanomolar potency against the human enzymes and at least single-digit nanomolar potency toward the mouse orthologues. […] Isolates which appeared potent against both human and mouse MMP-2 were then subjected to IC50 analysis against hMMP-9. Sub-nanomolar inhibitors of hMMP-9 were further tested by IC50 analysis against mMMP-9 and h/m MMP-2, if sufficient small-scale sFab material was available. Thirteen potential h/m MMP-9/-2 sFab inhibitors were then produced in medium scale (250 mL cultures in flasks) and retested for h/m MMP-9 and h/m MMP-2 inhibition. Five potential lead candidates were reformatted as IgGs and retested in enzyme inhibition assays.
Human MMP-9 (Biomol #SE-244), mouse MMP-9 (R&D Systems #909-MM-010), human MMP-2 (Biomol #SE-237) and mouse MMP-2 (R&D Systems #924-MP-010) were tested at final concentrations of 1 nM, 0.25-0.4 nM, 2.5 nM and 0.2 nM, respectively. Target enzymes were incubated with inhibitor for two hours at 30° C. in reaction buffer (50 mM Tris-HCl pH 7.5, 150 mM NaCl, 5 mM CaCl2, 0.05% Brij-35) in a total volume of 90 μL using a white 96 well plate (Costar). Reactions contained 5 μL of small-scale sFab stock solution (average concentration of 500 nM) for single point inhibition analysis or a concentration series of sFab/IgG for IC50 Ki,app determinations. Commercially available anti-MMP-9 antibodies (Millipore mAb 13415 and R&D Systems polyclonal IgG #AB911) were tested by IC50 analyses using 100 nM and 500 nM as the highest inhibitor concentrations, respectively. An anti-MMP-2 antibody (R&D Systems polyclonal IgG #AF902) was similarly tested with 200 nM as the highest inhibitor concentration. Reactions were initiated by the addition of 10 μL of a 10× concentrated stock of substrate, Mca-Lys-Pro-Leu-Gly-Leu-Dap(Dnp)-Ala-Arg-NH2, (Bachem M-2350), at final concentration of 10 μM and monitored at 30° C. in a Molecular Devices' Gemini fluorescence plate reader. The excitation and emission wavelengths were set at 328 nm and 393 nm, respectively. Kinetic data were acquired by the increase in fluorescence, and initial rates for each condition were plotted against the total inhibitor concentration. Reactions were performed in duplicates and all data replicates were plotted in a single graph and fit to the following equation^1:
Where A=initial rate observed at each inhibitor concentration; Ao=initial rate observed in the absence of inhibitor; Ainh=initial rate observed for the enzyme inhibitor complex; Inh=concentration of inhibitor; E=total enzyme concentration (treated as a floated parameter); and Ki,app=apparent equilibrium inhibition constant.

T1 sequence (P33434 110-662): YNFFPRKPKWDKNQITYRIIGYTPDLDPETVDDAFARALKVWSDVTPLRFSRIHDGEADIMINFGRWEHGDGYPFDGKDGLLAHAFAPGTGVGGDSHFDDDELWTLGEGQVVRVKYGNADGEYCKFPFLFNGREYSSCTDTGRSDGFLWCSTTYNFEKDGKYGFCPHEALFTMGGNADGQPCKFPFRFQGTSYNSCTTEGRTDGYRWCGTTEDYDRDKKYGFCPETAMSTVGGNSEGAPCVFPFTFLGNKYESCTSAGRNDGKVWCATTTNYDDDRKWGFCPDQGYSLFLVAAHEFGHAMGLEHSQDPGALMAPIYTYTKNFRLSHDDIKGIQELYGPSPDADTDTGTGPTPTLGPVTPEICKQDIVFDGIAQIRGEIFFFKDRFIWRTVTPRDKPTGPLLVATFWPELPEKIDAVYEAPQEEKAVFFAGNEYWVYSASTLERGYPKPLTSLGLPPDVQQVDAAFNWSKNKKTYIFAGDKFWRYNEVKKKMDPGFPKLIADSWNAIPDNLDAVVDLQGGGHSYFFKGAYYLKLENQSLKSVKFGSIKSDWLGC

Ki (medium-scale sFab) [nM] | Ki (small-scale sFab) [nM] | Molecule
30 | 30 | M0299-A12: affinity matured variant of M237-D02, sFab (antibody, V domains shown) VH: EVQLLESGGGLVQPGGSLRLSCAASGFTFSHYPMWWVRQAPGKGLEWVSYISSSGGGTFYADSVKGRFTISRDNSKNTLYLQMNSLRAEDTAVYYCAKDRAYGDYVGWNGFDYWGQGTLVTVSS VL: QDIQMTQSPATLSLSPGERATLSCRASQSISSFLAWYQQKPGQAPRLLIYDASYRATGIPARFSGSGSGTDFTLTISSLEPEDYAVYYCQQRGNWPITFGQGTRLEIK
15 | 15 | M0275-E12: affinity matured variant of M237-D02, sFab (antibody, V domains shown) VH: EVQLLESGGGLVQPGGSLRLSCAASGFTFSHYDMWWVRQAPGKGLEWVSVIYSSGGFTGYADSVKGRFTISRDNSKNTLYLQMNSLRAEDTAVYYCAKDRAYGDYVGWNGFDYWGQGTLVTVSS VL: QDIQMTQSPATLSLSPGERATLSCRASQSISSFLAWYQQKPGQAPRLLIYDASYRATGIPARFSGSGSGTDFTLTISSLEPEDYAVYYCQQRGNWPITFGQGTRLEIK
21 | 21 | M0301-A09: affinity matured variant of M237-D02, sFab (antibody, V domains shown) VH: EVQLLESGGGLVQPGGSLRLSCAASGFTFSYYDMWWVRQAPGKGLEWVSVIYPSGGYTAYADSVKGRFTISRDNSKNTLYLQMNSLRAEDTAVYYCAKDRAYGDYVGWNGFDYWGQGTLVTVSS VL: QDIQMTQSPATLSLSPGERATLSCRASQSISSFLAWYQQKPGQAPRLLIYDASYRATGIPARFSGSGSGTDFTLTISSLEPEDYAVYYCQQRGNWPITFGQGTRLEIK
4.2 | 4.2 | M0256-D11: affinity matured variant of M237-D02, sFab (antibody, V domains shown) VH: EVQLLESGGGLVQPGGSLRLSCAASGFTFSHYDMWWVRQAPGKGLEWVSVIYSSGGPTFYADSVKGRFTISRDNSKNTLYLQMNSLRAEDTAVYYCAKDRAYGDYVGWNGFDYWGQGTLVTVSS VL: QDIQMTQSPATLSLSPGERATLSCRASQSISSFLAWYQQKPGQAPRLLIYDASYRATGIPARFSGSGSGTDFTLTISSLEPEDYAVYYCQQRGNWPITFGQGTRLEIK
46 | 46 | M0272-H08: affinity matured variant of M237-D02, sFab (antibody, V domains shown) VH: EVQLLESGGGLVQPGGSLRLSCAASGFTFSAYDMWWVRQAPGKGLEWVSVIYPSGGTTFYADSVKGRFTISRDNSKNTLYLQMNSLRAEDTAVYYCAKDRAYGDYVGWNGFDYWGQGTLVTVSS VL: QDIQMTQSPATLSLSPGERATLSCRASQSISSFLAWYQQKPGQAPRLLIYDASYRATGIPARFSGSGSGTDFTLTISSLEPEDYAVYYCQQRGNWPITFGQGTRLEIK
2.7 | 2.7 | M0274-G08: affinity matured variant of M237-D02, sFab (antibody, V domains shown) VH: EVQLLESGGGLVQPGGSLRLSCAASGFTFSVYDMWWVRQAPGKGLEWVSVIYPSGGATYYADSVKGRFTISRDNSKNTLYLQMNSLRAEDTAVYYCAKDRAYGDYVGWNGFDYWGQGTLVTVSS VL: QDIQMTQSPATLSLSPGERATLSCRASQSISSFLAWYQQKPGQAPRLLIYDASYRATGIPARFSGSGSGTDFTLTISSLEPEDYAVYYCQQRGNWPITFGQGTRLEIK
5.4 | 5.4 | M0275-D03: affinity matured variant of M237-D02, sFab (antibody, V domains shown) VH: EVQLLESGGGLVQPGGSLRLSCAASGFTFSQYDMWWVRQAPGKGLEWVSVIYPSGTTFYADSVKGRFTISRDNSKNTLYLQMNSLRAEDTAVYYCAKDRAYGDYVGWNGFDYWGQGTLVTVSS VL: QDIQMTQSPATLSLSPGERATLSCRASQSISSFLAWYQQKPGQAPRLLIYDASYRATGIPARFSGSGSGTDFTLTISSLEPEDYAVYYCQQRGNWPITFGQGTRLEIK
32 | 32 | M0273-A11: affinity matured variant of M237-D02, sFab (antibody, V domains shown) VH: EVQLLESGGGLVQPGGSLRLSCAASGFTFSRYDMWWVRQAPGKGLEWVSVISPSGGATFYADSVKGRFTISRDNSKNTLYLQMNSLRAEDTAVYYCAKDRAYGDYVGWNGFDYWGQGTLVTVSS VL: QDIQMTQSPATLSLSPGERATLSCRASQSISSFLAWYQQKPGQAPRLLIYDASYRATGIPARFSGSGSGTDFTLTISSLEPEDYAVYYCQQRGNWPITFGQGTRLEIK
22 | 22 | M0273-G07: affinity matured variant of M237-D02, sFab (antibody, V domains shown) VH: EVQLLESGGGLVQPGGSLRLSCAASGFTFSHYDMWWVRQAPGKGLEWVSVIYPSGGPTYYADSVKGRFTISRDNSKNTLYLQMNSLRAEDTAVYYCAKDRAYGDYVGWNGFDYWGQGTLVTVSS VL: QDIQMTQSPATLSLSPGERATLSCRASQSISSFLAWYQQKPGQAPRLLIYDASYRATGIPARFSGSGSGTDFTLTISSLEPEDYAVYYCQQRGNWPITFGQGTRLEIK
59 | 59 | M0273-B10: affinity matured variant of M237-D02, sFab (antibody, V domains shown) VH: EVQLLESGGGLVQPGGSLRLSCAASGFTFSKYAMIWVRQAPGKGLEWVSWIPPSGGYTSYADSVKGRFTISRDNSKNTLYLQMNSLRAEDTAVYYCAKDRAYGDYVGWNGFDYWGQGTLVTVSS VL: QDIQMTQSPATLSLSPGERATLSCRASQSISSFLAWYQQKPGQAPRLLIYDASYRATGIPARFSGSGSGTDFTLTISSLEPEDYAVYYCQQRGNWPITFGQGTRLEIK
18 | 18 | M0273-C10: affinity matured variant of M237-D02, sFab (antibody, V domains shown) VH: EVQLLESGGGLVQPGGSLRLSCAASGFTFSFYPMWWVRQAPGKGLEWVSYIYPSGGATFYADSVKGRFTISRDNSKNTLYLQMNSLRAEDTAVYYCAKDRAYGDYVGWNGFDYWGQGTLVTVSS VL: QDIQMTQSPATLSLSPGERATLSCRASQSISSFLAWYQQKPGQAPRLLIYDASYRATGIPARFSGSGSGTDFTLTISSLEPEDYAVYYCQQRGNWPITFGQGTRLEIK
25 | 25 | M0301-D12: affinity matured variant of M237-D02, sFab (antibody, V domains shown) VH: EVQLLESGGGLVQPGGSLRLSCAASGFTFSMYDMWWVRQAPGKGLEWVSVIYSSGGYTSYADSVKGRFTISRDNSKNTLYLQMNSLRAEDTAVYYCAKDRAYGDYVGWNGFDYWGQGTLVTVSS VL: QDIQMTQSPATLSLSPGERATLSCRASQSISSFLAWYQQKPGQAPRLLIYDASYRATGIPARFSGSGSGTDFTLTISSLEPEDYAVYYCQQRGNWPITFGQGTRLEIK
2.2 | 2.2 | M0307-F04: affinity matured variant of M237-D02, sFab (antibody, V domains shown) VH: EVQLLESGGGLVQPGGSLRLSCAASGFTFSLYDMWWVRQAPGKGLEWVSVIYSSGGYTGYADSVKGRFTISRDNSKNTLYLQMNSLRAEDTAVYYCAKDRAYGDYVGWNGFDYWGQGTLVTVSS VL: QDIQMTQSPATLSLSPGERATLSCRASQSISSFLAWYQQKPGQAPRLLIYDASYRATGIPARFSGSGSGTDFTLTISSLEPEDYAVYYCQQRGNWPITFGQGTRLEIK
